Legend:
[1] = biological target: RNA polymerase core enzyme (alpha2 beta beta' omega);NusA (Escherichia coli;Escherichia coli, UniProt P0A7Z4;P0A8V2;P0A8T7;P0A800;P0AFF6 1-329;1-1342;1-1407;1-91;1-495, |); assay: EMSA; 160 nM core, NusA titration; tandem core-DNA complex dissociated to single copy; EMSA buffer D (1x): 20 mM Tris-acetate, 10 mM Mg acetate, 50 mM K acetate, 1 mM DTT, pH 7.8; native PAGE in 0.5x TBE running buffer; 37 C for the tac and slyD template reactions, otherwise temperature not stated; conditions: protein: native;recombinant; tags: ;; chain copies: 2;1;1;1;1; label: 5'-32P
[2] = biological target: RNA polymerase core enzyme (alpha2 beta beta' omega);RapA (Escherichia coli;Escherichia coli, UniProt P0A7Z4;P0A8V2;P0A8T7;P0A800;P60240 1-329;1-1342;1-1407;1-91;1-968, |); assay: EMSA; 160 nM core, RapA titration; shifts to single-copy core-RapA-DNA complex; EMSA buffer D (1x): 20 mM Tris-acetate, 10 mM Mg acetate, 50 mM K acetate, 1 mM DTT, pH 7.8; native PAGE in 0.5x TBE running buffer; 37 C for the tac and slyD template reactions, otherwise temperature not stated; conditions: protein: native;recombinant; tags: ;; chain copies: 2;1;1;1;1; label: 5'-32P

Does CGCGCCAACAGCGACATCAAATTTGTCGCC (mixed) [short DNA probe (Fig 2E)] bind [1]?
Result: binds

Does CGCGCCAACAGCGACATCAAATTTGTCGCC (mixed) [short DNA probe (Fig 2E)] bind [2]?
Result: binds
